Test results as given in PMC9499943 (2022).
“And” between values parts separate entries of the source, which are not always exact repeats. Identical values can stand only once.

B1: CoV2-14 (antibody, V domains shown)
VH: EVQLQQSGPGLVKPSQTLSLTCAISGDSVSSNSAAWNWIRQSPSRGLEWLGRTYYRSKWYNDYAVSVKSRITINPDTSKNQFSLQLNSVTPEDTAVYYCAREEQQLVHDYYYYGMDVWGQGTMVTVSS
VL: QAVVTQPASVSGSPGQSITISCTGTSSDIGAYNYISWYQQHPGKAPKLIIYEVSNRPSGISYRFSGSKSGNTASLTISGLQAEDEANYYCSSYAGSISFGGGTKVTVL
B2: CoV2-06 (antibody, V domains shown)
VH: QVELQESGPGLVKPSGTLSLTCAVSGGSISSNNWWTWVRQPPGKGLEWIGEIHHSGGTNYNPSLKSRVTMSVDKSKNQFSLNLYSVTAADTAVYYCTRDRAGGTYSGFDFWGQGTLVTVSS
VL: QAVVTQPASVSGSPGQSITISCTGTSSDVGGYNYVSWYQQHPGKAPKLMIYDVSNRPSGVSNRFSGSKSGNTASLTISGLQAEDEADYYCSSYTSSSTVVFGGGTKVTVL

What was measured:
[1] = target: T1, His-tagged RBD (RBD-His) protein of SARS-CoV-2 (SARS-CoV-2, UniProt P0DTC2 319-541); assay: BLI
[2] = target: T1, His-tagged RBD (RBD-His) protein of …; assay: BLI; remark: listed apart in the source

Binder | Kd [1] | koff [2]
B1 | 0.62 nM and 0.58 nM | 0.000222 s⁻¹ and 0.000552 s⁻¹
B2 | 0.27 nM and 0.09 nM | –
